Source: patent publication US11471538B2, “Methods and pharmaceutical compositions for the treatment of cancers associated with activation of the MAPK pathway” (INSERM (Institut National de la Santé et de la Recherche …, priority 2017, dated 2022)

B1: Hal5-10acl2: antibody directed against SLITRK6, produced by CHO cell ATCC PTA-13102; VH SEQ ID NO: 1, VL SEQ ID NO: 2 (antibody, V domains shown)
VH: QVQLVESGGGVVQPGRSLRLSCAASGFTFSSYGMHWVRQAPGKGLEWVAVIWYDGSNQYYADSVKGRFTISRDNSKNTLFLQMHSLRAEDTAVYYCARGLTSGRYGMDVWGQGTTVTVSS
VL: DIVMTQSPLSLPVTPGEPASISCRSSQSLLLSHGFNYLDWYLQKPGQSPQLLIYLGSSRASGVPDRFSGSGSGTDFTLKISRVEAEDVGLYYCMQPLQIPWTFGQGTKVEIKR
modifications: Synthetic heavy chain variable region of Hal5-10acl2; Synthetic light chain variable region of Hal5-10acl2

Assays:
SLITRK6 mRNA = SLITRK6 mRNA expression by Q-PCR in BRAF-mutant melanoma cells under MAPK inhibitor treatment; assay type: cell-based; conditions: PLX4032 1 μM alone or with AZD6244 0.1 μM; A375, Lu1205, WM266-4, WM983B, WM35, WM115 cells; 72 h for WM35 and WM115
Experimental: FIG. 1. SLITRK6 mRNA expression is induced under MAPK inhibitor treatment in BRAF-mutant melanoma cells. A) A375, Lu1205, WM266-4 and WM983B cell lines were treated with a BRAF inhibitor (PLX4032) at 1 μM alone or in combination with a 0.1 μM MEK inhibitor (AZD6244). mRNA fold increase relative to the DMSO control is determined by Q-PCR. The results are presented as the mean±SD of the average of 3 independent experiments. *** p<0.001; T-test. B) BRAF-mutant melanoma cells lines WM35 and WM115 were treated with a BRAF inhibitor (PLX4032, 1 μM) alone or in combination with a MEK inhibitor (AZD6244, 0.1 μM) for 72 h and SLITRK6 mRNA was analyzed by RT-qPCR. Data shown are the means±standard deviation of 3 independent experiments. ** p<0.01; * p<0.05; t-test.

SLITRK6 [1] = assay: Staining of A375 cells for SLITRK6: antibody internalization; assay type: cell-based; conditions: si-Ctl or si-SLITRK6, PLX4032 1 μM alone or with AZD6244 0.1 μM for 48 h
Experimental: FIG. 6. […] A375 cells were transfected with siRNA control (si-Ctl) or targeting SLITRK6 (si-SLITRK6) before treatment with PLX4032 (1 μM) alone or in combination with AZD6244 (0.1 μM) for 48 h. Cells were then stained for SLITRK6 (green) and DNA was counterstained with DAPI (blue).

SLITRK6 [2] = assay: Staining of A375 cells for SLITRK6: antibody binding at the membrane; conditions: si-Ctl or si-SLITRK6, PLX4032 1 μM alone or with AZD6244 0.1 μM for 48 h
Experimental: FIG. 5. […] A375 cells were transfected with siRNA control (si-Ctl) or targeting SLITRK6 (si-SLITRK6) before treatment with PLX4032 (1 μM) alone or in combination with AZD6244 (0.1 μM) for 48 h. Cells were then stained for SLITRK6 (green) and DNA was counterstained with DAPI (blue).

[3] = listed as antibody against SLITRK6

Row | Molecule | SLITRK6 mRNA expression (fold increase relative to the DMSO control) (SLITRK6 mRNA) | internalization of the antibody and its target (SLITRK6 [1]) | internalization of the antibody and its target (SLITRK6 [1]; [3]) | binding of the antibody to SLITRK6 at the cell membrane (SLITRK6 [2]) | binding of the antibody to SLITRK6 at the cell membrane (SLITRK6 [2]; [3])
1 | CCCS(=O)(=O)Nc1ccc(F)c(C(=O)c2c[nH]c3ncc(-c4ccc(Cl)cc4)cc23)c1F [PLX4032] | induced |  |  |  | 
2 | B1 |  | internalizes the tumor cells only after a treatment with a MAPK inhibitor | internalizes its target specifically only after MAPKi treatment | binds to melanoma cells only when the cells are treated with a MAMPK inhibitor | binds its target specifically at the membrane only after MAPK inhibitor treatment
